Results on four molecules are retold here after PMC12373786, “Targeted protein degradation in Escherichia coli using CLIPPERs” (EMBO Reports, 2025).

By Kd is commonly meant the equilibrium constant for the complex coming apart. The low end stands for tighter binding, the high end for weaker binding. Usually koff stands for the first-order rate constant of dissociation. As usually defined, the kon is the second-order rate constant of association. Low values mean slow association, high ones fast association.

For assay [1], the target named is His-SUMO-XB-GGS-SBP (E. coli). Kind of assay: BLI; His-SUMO-tagged peptide loaded on Octet NTA biosensors (150 nM Anchor-Linker or 100 nM GroTAC1), blocked with His-SUMO; ClpX 1 uM to 31.25 nM in solution; 30 °C; 25 mM HEPES pH 8.0, 200 mM KCl, 10 mM MgCl2, 0.05% Tween-20, 2.5 mM ATP; 1:1 model. On the technique in general: Biolayer interferometry detects binding as a change in optical thickness at a sensor tip.

In assay [2] the target is His-SUMO-XB-GGS (E. coli). Described as above.
Assay [3] addresses His-SUMO-XB-GGS-SBP (E. coli). Kind of assay: BLI; His-SUMO-tagged peptide loaded on Octet NTA biosensors (150 nM Anchor-Linker or 100 nM GroTAC1), blocked with 86 nM His-SUMO; ClpX as analyte, 1 uM to 31.25 nM; 30 C; 25 mM HEPES pH 8.0, 200 mM KCl, 10 mM MgCl2, 0.05% Tween-20, 2.5 mM ATP; 1:1 fit.
Assay [4] has as its target His-SUMO-XB-GGS (E. coli). The description is as above.
In assay [5] the target is His-SUMO-XB-GGS-SBP (E. coli). In words: BLI; His-SUMO-tagged peptide loaded on Octet NTA biosensors (200 nM Linker-Bait or 400 nM GroTAC1), blocked with 257 nM His-SUMO; GroEL as analyte, 2.5 uM to 78.1 nM; 30 C; 25 mM HEPES pH 8.0, 300 mM KCl, 10 mM MgCl2, 0.05% Tween-20, 12.5 mM ATP; 1:1 fit.
Assay [6] deals with His-SUMO-GGS-SBP. The assay is described as above.
In assay [7] the target is His-SUMO-XB-GGS-SBP (E. coli). Kind of assay: BLI; His-SUMO-tagged peptide loaded on Octet NTA biosensors (200 nM Linker-Bait or 400 nM GroTAC1), blocked with His-SUMO; GroEL 2.5 uM to 78.1 nM in solution; 30 °C; 25 mM HEPES pH 8.0, 300 mM KCl, 10 mM MgCl2, 0.05% Tween-20, 12.5 mM ATP; 1:1 model.
Assay [8] addresses His-SUMO-GGS-SBP. Described as above.
Assay [9] addresses T1, His-ZBD (E. coli, UniProt P0A6H1 1-52).
T1 construct: also called 6xHis-ZBD; source: E. coli BL21 DE3, purified (HisTrap, Superdex200); not shown: His6, N-terminal, kept
T1 sequence (looked up): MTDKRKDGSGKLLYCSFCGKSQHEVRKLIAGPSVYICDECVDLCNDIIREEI
In words: BLI; 1.37 uM His-ZBD loaded on Octet NTA biosensors, blocked with 600 nM cAbGFP; untagged synthetic peptide as analyte, 1 uM to 31.25 nM; 30 C; 25 mM HEPES pH 8.0, 200 mM KCl, 10 mM MgCl2, 2.5 mM ATP, 0.05% Tween 20; 1:1 fit. The conditions noted are these: both partners purified.

Square brackets hold non-standard residues; d marks the D form. Primed or numbered codes have the meaning given here. Ends that are not written are not given here. PEG3′ = three-unit polyethylene glycol linker

Turning to “ClpX (from UniProt P0A6H1 1-424) (enzyme)”, the dissociation constant (Kd) amounted to 70 nM in [1], 65 nM in assay [2], 70.4 nM in assay [3] and 64.8 nM in [4]. Moreover, the koff in [3] amounted to 0.00769 s⁻¹; in assay [4], 0.00495 s⁻¹. The kon in assay [3] stood at 109000 M⁻¹ s⁻¹; in assay [4], 76500 M⁻¹ s⁻¹.
Turning to “GroEL (from UniProt P0A6F5 1-548) (natural protein)”, the koff in assay [5] was 0.00409 s⁻¹; in assay [6], 0.00919 s⁻¹. Also, the values for the kon in [5] and in [6] were 26600 M⁻¹ s⁻¹ and 98200 M⁻¹ s⁻¹, respectively. Moreover, the Kd stood at 93.6 nM in [6], 154 nM in [7] and 94 nM in assay [8].

B1: GroTAC2 (synthetic) (designed binder)
peptide: CYRGGRPALRVVKGGSGGSGGSWMTTPWGFHLP
notes: flexible linker; also called untagged, synthetic GroTAC2; source: synthetic peptide (GeneScript)
In [9], B1 registered a Kd of 52.6 nM, a koff of 0.00165 s⁻¹ and an on-rate constant (kon) of 31400 M⁻¹ s⁻¹.

B2: GroTAC3 (synthetic) (designed binder)
peptide: CYRGGRPALRVVK[PEG3′]SWMTTPWGFHLP
notes: residues 17-28 in the model PDB 8S32; the (PEG)3 linker is no amino acid stretch; also called XB-PEG3-SBP; source: synthetic peptide (KareBay Biochem)
On to B2, for which, in assay [9], binding was put at a Kd of 82.4 nM, the koff was determined as 0.000915 s⁻¹ and the kon stood at 11100 M⁻¹ s⁻¹.
